Read-outs that look alike come from different tables or passages of the source.
What was measured:
[1] = biological target: T1, HSV-1 DNA polymerase catalytic subunit UL30 (exonuclease proficient) (Herpes simplex virus 1, UniProt P04293 1-1235); assay: competition
[2] = biological target: T1, HSV-1 DNA polymerase catalytic subunit …; assay: competition; remark: listed apart in the source

T1 sequence (P04293 whole entry): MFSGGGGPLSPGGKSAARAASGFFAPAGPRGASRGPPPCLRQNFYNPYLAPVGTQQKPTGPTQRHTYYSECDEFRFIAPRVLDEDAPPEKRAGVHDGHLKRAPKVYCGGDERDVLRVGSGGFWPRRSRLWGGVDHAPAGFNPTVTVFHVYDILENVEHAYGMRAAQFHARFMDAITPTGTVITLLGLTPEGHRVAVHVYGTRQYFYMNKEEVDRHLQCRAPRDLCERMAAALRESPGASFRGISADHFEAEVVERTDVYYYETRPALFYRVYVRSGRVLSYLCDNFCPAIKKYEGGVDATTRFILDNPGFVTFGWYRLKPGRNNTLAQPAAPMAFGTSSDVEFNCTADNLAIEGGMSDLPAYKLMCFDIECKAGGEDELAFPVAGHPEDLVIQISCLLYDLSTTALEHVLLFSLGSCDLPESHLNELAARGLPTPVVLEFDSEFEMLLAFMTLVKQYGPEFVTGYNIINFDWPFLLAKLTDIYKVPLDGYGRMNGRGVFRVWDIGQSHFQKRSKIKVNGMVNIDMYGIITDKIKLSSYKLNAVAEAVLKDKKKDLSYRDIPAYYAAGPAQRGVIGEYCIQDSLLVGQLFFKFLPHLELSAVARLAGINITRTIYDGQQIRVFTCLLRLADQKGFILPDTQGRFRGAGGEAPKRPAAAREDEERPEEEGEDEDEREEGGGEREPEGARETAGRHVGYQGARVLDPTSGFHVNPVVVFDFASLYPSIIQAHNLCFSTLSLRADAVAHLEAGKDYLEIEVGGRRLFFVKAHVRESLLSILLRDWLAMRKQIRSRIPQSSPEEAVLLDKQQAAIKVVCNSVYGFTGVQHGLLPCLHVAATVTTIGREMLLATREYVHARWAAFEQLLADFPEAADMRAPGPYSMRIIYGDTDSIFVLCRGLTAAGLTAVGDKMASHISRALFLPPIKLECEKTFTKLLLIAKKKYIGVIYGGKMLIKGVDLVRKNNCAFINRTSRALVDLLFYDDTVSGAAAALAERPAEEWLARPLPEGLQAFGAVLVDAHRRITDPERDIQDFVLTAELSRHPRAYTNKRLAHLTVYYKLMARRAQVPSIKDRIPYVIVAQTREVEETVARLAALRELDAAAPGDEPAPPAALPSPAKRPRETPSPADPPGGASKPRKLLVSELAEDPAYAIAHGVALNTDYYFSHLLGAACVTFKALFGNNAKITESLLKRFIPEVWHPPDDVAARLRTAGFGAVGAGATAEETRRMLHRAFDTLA

Binder | binding result [1] | binding result [2]
GCTCTGTTCCGGTTTG (ssDNA, acyclovir monophosphate (acyclic G) at 3' end, position 16 (printed A*)) [DNA16ACVss] | binds | –
GCTCTGTTCCGGTTTG (ssDNA, 2',3'-dideoxyG at 3' end, position 16 (printed D*)) [DNA16ddss] | binds | –
DNA16ACV (dsDNA, acyclovir monophosphate (acyclic G) at 3' end of primer, position 16 (printed A*)) DNA 1: GCTCTGTTCCGGTTTG DNA 2: CATGATTAGATGAAACACAAACCGGAACAGAGC | – | binds
DNA16GCV (dsDNA, ganciclovir monophosphate (acyclic G) at 3' end of primer, position 16 (printed G*)) DNA 1: GCTCTGTTCCGGTTTG DNA 2: CATGATTAGATGAAACACAAACCGGAACAGAGC | – | binds
DNA16dd (dsDNA, 2',3'-dideoxyG at 3' end of primer, position 16 (printed D*)) DNA 1: GCTCTGTTCCGGTTTG DNA 2: CATGATTAGATGAAACACAAACCGGAACAGAGC | – | binds

Source: article PMC5551684
